Assay results from paper PMC8156467, “Disruption of YY1-EZH2 Interaction Using Synthetic Peptides Inhibits Breast Cancer Development” (Cancers, 2021).

System: HA-YY1
Assay: Co-IP of Flag-EZH2 wt/mutants with HA-YY1
Assay type: binding
Conditions: OPB domain of YY1 deleted
Description: HA-tagged expression vectors of wild-type (wt) and mutant YY1 were constructed by amplifying and subcloning the corresponding fragments of the YY1 coding region into the pcDNA3 vector. To generate EZH2 mutants, different regions of its coding sequence (1–251, 252–384, 385–618, 619–751, 385–465, 465–545, 545–618, 465–492, and 465–519) were amplified and subcloned into pGEX-4T-1 and pSL4-3×Flag plasmids to construct vectors expressing recombinant GST-EZH2 and 3×Flag-EZH2 mutants, respectively. To generate vectors expressing 3×Flag-YPB, -OPB, and -Cont (with a scrambled sequence of […]) peptides, their coding sequences were individually subcloned into a lentiviral vector pSL4 using the CMV promoter to drive the expression of 3×Flag-YPB-2A1-EGFP, 3×Flag-OPB-2A1-EGFP, and 3×Flag-Cont-2A1-EGFP. […]
Immunoprecipitations were performed as described previously. […] In Western blot studies, protein concentrations of samples were determined using the Bradford protein method, and 20 μg of proteins for each sample were separated by SDS-PAGE followed by transfer to polyvinylidene difluoride (PVDF) membranes. […]
Figure 1 Identification of YY1 binding site on EZH2 protein. […] The samples were analyzed by Western blot using EZH2 and YY1 antibodies as indicated. […]

binding of HA-YY1 (ΔOPB) to wt EZH2 in co-IP: did not show detectable binding affinity
B1: HA-YY1 (ΔOPB): YY1 mutant with the OPB domain deleted (protein)
chain: MASGDTLYIATDGSEMPAEIVELHEIEVETIPVETIETTVVGEEEEEDDDDEDGGGGDHGGGGGHGHAGHHHHHHHHHHHPPMIALQPLVTDDPTQVHHHQEVILVQTREEVVGGDDSDGLRAEDGFEDQILIPVPAPAGGDDDYIEQTLVTVAAAGKSGGGGSSSSGGGRVKKGGGKKSGKKSYLSGGAGAAGGGGADPDEKKDIDHETVVEEQIIGENSPPDYSEYMTGKKLPPGGIPGIDLSDPKQLAEFARMKPRKIKEDDAPRTIACPHKGCTKMFRDNSAMRKHLHTHGPRVHVCAECGKAFVESSKLKRHQLVHTGEKPFQCTFEGCGKRFSLDFNLRTHVRIHTGDRPYVCPFDGCNKKFAQSTNLKSHILTHAKAKNNQ
modifications: left off: HA, end not stated, kept
